Bridge positions count the residues as written; N and C are the ends. Ends that are not written are not given here.
Molecular target: P-0153 (IL-15/IL-15RαSushi+ Fc fusion protein)
Test: ELISA, P-0153 coated, biotinylated peptide titrated, Streptavidin-HRP
Procedure: The five peptides, L01 to L05 (SEQ ID NO: 97-101) in Table 19 were synthesized and assessed for their binding to IL-15 in ELISA format. […] Streptavidin-HRP complex at the manufacturer's recommended concentration was added and signal was developed by TMB substrate.

Chain of P-0153 (IL-15/IL-15RαSushi+ Fc fusion protein) (chain, as listed by the source, chain 1 of 2): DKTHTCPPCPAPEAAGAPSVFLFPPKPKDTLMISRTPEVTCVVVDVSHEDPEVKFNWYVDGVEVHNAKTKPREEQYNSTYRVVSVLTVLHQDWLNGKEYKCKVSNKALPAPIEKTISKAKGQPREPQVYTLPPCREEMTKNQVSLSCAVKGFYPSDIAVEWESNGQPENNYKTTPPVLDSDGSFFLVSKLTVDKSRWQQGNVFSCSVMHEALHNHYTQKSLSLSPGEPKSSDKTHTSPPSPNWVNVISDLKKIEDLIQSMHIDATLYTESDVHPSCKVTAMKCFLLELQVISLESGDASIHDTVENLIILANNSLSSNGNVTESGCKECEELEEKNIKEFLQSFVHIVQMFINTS
Chain of P-0153 (IL-15/IL-15RαSushi+ Fc fusion protein) (chain, as listed by the source, chain 2 of 2): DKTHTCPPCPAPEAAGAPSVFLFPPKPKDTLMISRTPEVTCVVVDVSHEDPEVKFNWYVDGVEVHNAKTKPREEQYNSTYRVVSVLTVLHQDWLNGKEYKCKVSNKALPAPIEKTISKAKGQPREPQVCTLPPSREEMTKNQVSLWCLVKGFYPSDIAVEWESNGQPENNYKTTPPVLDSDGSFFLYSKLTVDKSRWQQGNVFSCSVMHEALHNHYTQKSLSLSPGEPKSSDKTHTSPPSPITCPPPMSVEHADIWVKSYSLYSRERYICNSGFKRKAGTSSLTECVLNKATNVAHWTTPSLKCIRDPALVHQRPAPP

| binding result | Binder |
| --- | --- |
| binds | CEISQASHYFERHLC (bridge 1-15 (inferred); also: biotinylated, site not given here, cyclized, bridge kind not given here, also called cyclized loop 2) [L03 (IL-2Rβ-based blocking peptide)] |

Molecular target: T1, P-0689 (IL-2 Fc fusion) (Homo sapiens (Human), UniProt P0DOX5 223-448 = IgG part)
T1 construct: Monovalent IL-2 S125I Fc fusion; also called IL-2 S125I monovalent Fc fusion protein; monovalent wild-type IL-2 Fc fusion protein
Test: ELISA, IL-2RαSushi Fc fusion coated, P-0689 titrated, biotin anti-IL2 antibody and Avidin-HRP
Procedure: IL-2Rα variants were designed to reduce binding to IL-2 by incorporating mutations at residues interacting IL-2 so that the D3 moiety would readily diffuse away upon in vivo proteolysis. Three exemplary IL-2RαSushi variants (SEQ ID NOS: 267-269) were expressed as monovalent Fc fusion proteins corresponding to P-0751 (Y43A), P-0752 (L42G), and P-0753 (R36A), respectively. The three IL-2RαSushi variant Fc fusions were assessed for the impacts of individual mutations on binding to IL-2 in ELISA in comparison to their wild-type IL-2RαSushi counterpart fusion referred to as P-0757.
Briefly, IL-2RαSushi variant monovalent Fc fusion proteins was coated onto the wells of Nunc Maxisorp 96-well microplates at 1 μg/well. […] Following a one-hour incubation at room temperature, 100 μl/well of biotin anti-IL2 antibody clone B33-2 (BD biosciences) at 1 μg/ml were added to each well and incubated at room temperature for 1 hour. Subsequently, 100 μl/well of Avidin-HRP (BioLegend) at 1:500 dilution was added to each well and incubated for 30 min. Finally, 100 μl TMB substrate was added to each well; the plate was developed at room temperature, and 100 μl/well of stop solution was added. Absorbance was determined at 450 nm and curves were fit using Prism software (GraphPad).

| Binder | EC50 | EC50 Fold change vs w/t IL-2Rα |
| --- | --- | --- |
| P-0757 (wild-type IL-2RαSushi monovalent Fc fusion) (Fc fusion, also called w/t IL-2Rα; not shown: Fc chain fused to the Sushi domain, its linker and orientation, and the partner Fc chain of the monovalent heterodimer) ELCDDDPPEIPHATFKAMAYKEGTMLNCECKRGFRRIKSGSLYMLCTGNSSHSSWDNQCQCTSSATRNTTKQVTPQPEEQKERKTTEMQSPMQPVDQASLPGHCREPPPWENEATERIYHFVVGQMVYYQCVQGYRALHRGPAESVCKMTHGKTRWTQPQLICTG | 0.26 nM | 1 fold |
| P-0752 (IL-2RαSushi L42G monovalent Fc fusion) (Fc fusion, also called IL-2Rα L42G; not shown: Fc chain fused to the Sushi variant, its linker and orientation, and the partner Fc chain of the monovalent heterodimer) ELCDDDPPEIPHATFKAMAYKEGTMLNCECKRGFRRIKSGSGYMLCTGNSSHSSWDNQCQCTSSATRNTTKQVTPQPEEQKERKTTEMQSPMQPVDQASLPGHCREPPPWENEATERIYHFVVGQMVYYQCVQGYRALHRGPAESVCKMTHGKTRWTQPQLICTG | 9.2 nM | 35 fold |

Second part, the binder after the results:

| EC50 | EC50 Fold change vs w/t IL-2Rα | Binder |
| --- | --- | --- |
| 90 nM | 346 fold | P-0753 (IL-2RαSushi R36A monovalent Fc fusion) (Fc fusion, also called IL-2Rα R36A; not shown: Fc chain fused to the Sushi variant, its linker and orientation, and the partner Fc chain of the monovalent heterodimer) ELCDDDPPEIPHATFKAMAYKEGTMLNCECKRGFRAIKSGSLYMLCTGNSSHSSWDNQCQCTSSATRNTTKQVTPQPEEQKERKTTEMQSPMQPVDQASLPGHCREPPPWENEATERIYHFVVGQMVYYQCVQGYRALHRGPAESVCKMTHGKTRWTQPQLICTG |
| 2.1 nM | 8.1 fold | P-0751 (IL-2RαSushi Y43A monovalent Fc fusion) (Fc fusion, also called IL-2Rα Y43A; not shown: Fc chain fused to the Sushi variant, its linker and orientation, and the partner Fc chain of the monovalent heterodimer) ELCDDDPPEIPHATFKAMAYKEGTMLNCECKRGFRRIKSGSLAMLCTGNSSHSSWDNQCQCTSSATRNTTKQVTPQPEEQKERKTTEMQSPMQPVDQASLPGHCREPPPWENEATERIYHFVVGQMVYYQCVQGYRALHRGPAESVCKMTHGKTRWTQPQLICTG |

Reference: patent US20230093155A1 (CUGENE, published 2023)
